Reference: patent publication EP1591450A1, “CONJUGATE FOR RETENTION IN BLOOD AND CANCER TISSUE-SPECIFIC DRUG DELIVERY” (YAMANOUCHI PHARMACEUTICAL CO. LTD., priority 2003, dated 2004)
Where a SMILES comes first, the peptide text is derived from it. The star is where a group is joined. X1 = O=C(OCC1c2ccccc2-c2ccccc21)N(CC(=O)*)C(=O)OCC1c2ccccc2-c2ccccc21; Fmoc = O=C(OCC1c2ccccc2-c2ccccc21)*

What was measured:
MMP-2 = target: T1, MMP-2 (Homo sapiens, UniProt P08253); experiment: Enzymatic degradation of peptide and peptide-PEG by MMP-2; format: biochemical; conditions: beginning of reaction (15 minutes), 37°C, Tris buffer pH 7.5; Figure 4
T1 sequence (P08253 110-660): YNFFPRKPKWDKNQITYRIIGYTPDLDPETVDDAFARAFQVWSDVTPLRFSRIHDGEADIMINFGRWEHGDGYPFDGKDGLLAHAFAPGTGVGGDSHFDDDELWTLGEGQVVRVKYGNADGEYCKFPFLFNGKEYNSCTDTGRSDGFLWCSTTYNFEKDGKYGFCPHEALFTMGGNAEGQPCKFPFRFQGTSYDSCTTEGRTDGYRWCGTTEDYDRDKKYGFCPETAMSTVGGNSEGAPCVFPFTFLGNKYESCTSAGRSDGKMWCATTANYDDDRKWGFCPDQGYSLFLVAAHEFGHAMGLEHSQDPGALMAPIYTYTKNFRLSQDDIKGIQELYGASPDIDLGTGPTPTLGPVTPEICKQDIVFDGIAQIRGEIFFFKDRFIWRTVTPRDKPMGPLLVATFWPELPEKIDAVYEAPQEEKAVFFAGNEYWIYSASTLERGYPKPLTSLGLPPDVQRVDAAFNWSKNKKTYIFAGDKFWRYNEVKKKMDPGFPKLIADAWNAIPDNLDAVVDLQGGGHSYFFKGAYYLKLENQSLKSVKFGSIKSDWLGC
Description: After mixing in 0.5 ml of sample in 0.5 ml of acetonitrile, the mixture was filtered and gel filtration was performed.
MMP-2 solution was diluted with Tris buffer. […] The final concentration of MMP-2 was 0.34 µg/ml. […] The Fmoc-GPQGIAGWG-PEG in the filtrate was separated and quantitatively determined by gel filtration.

aminopeptidase-1 = conditions: per unit weight of enzyme and unit time, beginning (15 minutes) of reaction, 37°C, Tris buffer pH 7.5; MMP-2 0.17 µg/ml, aminopeptidase-1 10 µg/ml
Description: (§1) Fmoc-[…] was dissolved in Tris buffer (100 mM Tris/100 mM NaCl/10 mM CaCl2/0.05% BRIJ35, pH 7.5) and adjusted to a pre-determined concentration. MMP-2, collagenase, carboxypeptidase A, aminopeptidase-1, and trypsin were each diluted or dissolved in Tris buffer. Each enzyme solution was added to Fmoc-[…] solution that had been heated to 37°C and incubated for a pre-determined time at 37°C. The final concentration of the enzymes was as shown below: MMP-2: 0.17 µg/ml, collagenase: 7 µg/ml, carboxypeptidase A: 10 µg/ml, aminopeptidase-1: 10 µg/ml, trypsin: 10 µg/ml. After a pre-determined time, the same amount of acetonitrile was added to the sample solutions and they were filtered with a 0.5 µm filter (Millex-LH MILIPORE).

carboxypeptidase A = carboxypeptidase A (Homo sapiens, UniProt P15085); conditions: per unit weight of enzyme and unit time, beginning (15 minutes) of reaction, 37°C, Tris buffer pH 7.5; MMP-2 0.17 µg/ml, carboxypeptidase A 10 µg/ml
Description: as §1

collagenase = conditions: per unit weight of enzyme and unit time, beginning (15 minutes) of reaction, 37°C, Tris buffer pH 7.5; MMP-2 0.17 µg/ml, collagenase 7 µg/ml
Description: as §1

trypsin = target: T2, trypsin (Bos taurus, UniProt P00760); experiment: Enzymatic degradation of peptide by trypsin; format: biochemical; conditions: trypsin 10 µg/ml, 37°C, Tris buffer pH 7.5
T2 construct: gene PRSS1
T2 sequence (P00760 24-246): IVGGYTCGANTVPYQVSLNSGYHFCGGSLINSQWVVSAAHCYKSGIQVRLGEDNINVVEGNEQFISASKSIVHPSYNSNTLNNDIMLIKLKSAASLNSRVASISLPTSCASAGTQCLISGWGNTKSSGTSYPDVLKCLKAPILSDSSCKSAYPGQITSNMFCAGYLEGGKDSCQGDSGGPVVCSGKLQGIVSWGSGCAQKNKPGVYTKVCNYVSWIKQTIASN
Description: as §1

[1] = Particle diameter determination of peptide-PEG micelles (NICOMP Model 370); format: physicochemical
Description: The particle diameter of the micelles and the liposomes was determined with the NICOMP Model 370 (Particle Sizing Systems, Inc.).
Then particle diameter was determined by a laser diffraction particle diameter distribution determination device (NICOMP Model 370)(Table1).

Sequence of carboxypeptidase A (P15085 111-419): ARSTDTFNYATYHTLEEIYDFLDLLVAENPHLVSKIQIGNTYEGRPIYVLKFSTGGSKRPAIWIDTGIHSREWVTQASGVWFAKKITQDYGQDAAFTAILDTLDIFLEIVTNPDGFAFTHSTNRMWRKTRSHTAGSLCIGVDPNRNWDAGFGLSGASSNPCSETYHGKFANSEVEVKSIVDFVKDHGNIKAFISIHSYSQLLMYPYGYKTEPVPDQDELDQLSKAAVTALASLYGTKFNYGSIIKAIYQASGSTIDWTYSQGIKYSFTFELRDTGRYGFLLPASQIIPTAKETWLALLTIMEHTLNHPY

Molecule	degradation rate by MMP-2 per unit weight of MMP-2 and unit time, peptide compared with peptide-PEG (MMP-2)	degradation rate by MMP-2 relative to that of aminopeptidase-1 (aminopeptidase-1) [x]	degradation rate by MMP-2 relative to that of carboxypeptidase A (carboxypeptidase A) [x]	degradation rate by MMP-2 relative to that of collagenase (collagenase) [x]	Degradation by trypsin (trypsin)	Particle diameter ([1]; Concentration 5 µM in Tris buffer pH 7.5) [nm]	Particle diameter ([1]; Concentration 10 µM in Tris buffer pH 7.5) [nm]	Particle diameter ([1]; Concentration 20 µM in Tris buffer pH 7.5) [nm]	Particle diameter ([1]; Concentration 50 µM in Tris buffer pH 7.5) [nm]	Particle diameter ([1]; Concentration 100 µM in Tris buffer pH 7.5) [nm]	particle diameter of aggregate ([1]; at 5 µm or more)	critical micelle concentration ([1]; concluded from particle diameter and laser scattering intensity, Tris buffer pH 7.5) [µM]
CC[C@H](C)[C@H](NC(=O)CNC(=O)[C@H](CCC(=O)O)NC(=O)[C@@H]1CCCN1C(=O)CN(C(=O)OCC1c2ccccc2-c2ccccc21)C(=O)OCC1c2ccccc2-c2ccccc21)C(=O)N[C@@H](C)C(=O)NCC(=O)N[C@@H](Cc1c[nH]c2ccccc12)C(=O)NCC(=O)O [Fmoc-GPQGIAGWG, 9-fluorenylmethyloxycarbonyl (Fmoc)-glycyl-prolyl-glutamyl-glycyl-isoleucyl-alanyl-glycyl-tryptophanyl-glycine (Gly-Pro-Gln-Gly-Ile-Ma-Gly-Trp-Gly)] (X1-PEGIAGWG-OH)	virtually the same	14.2	38.8	26.9	not observed							
9-fluorenylmethyloxycarbonyl (Fmoc)-glycyl-prolyl-glutamyl-glycyl-isoleucyl-alanyl-glycyl-tryptophanyl-glycyl (Gly-Pro-Gln-Gly-Ile-Ala-Gly-Trp-Gly)-amide propyl polyoxyethylene methyl ether (Fmoc-GPQGIAGWG-{amide propyl polyoxyethylene methyl ether}; not fully specified) [Fmoc-GPQGIAGWG-PEG]	virtually the same					232	200	205	210	237	approximately 200 nm	~5
